Reference: publication PMC8819291, “Adaptively evolved human oral actinomyces‐sourced defensins show therapeutic potential” (EMBO Molecular Medicine, 2021)

Assays:
[1] = test system: Streptococcus salivarius ATCC 1.2498; experiment: Inhibition-zone-based synergy assay; format: cell-based; settings: 0.05 nmol/well, without AMSIN
[2] = test system: Streptococcus sanguinis ATCC 1.2497; experiment: Inhibition-zone-based synergy assay; format: cell-based; settings: 0.05 nmol/well, without AMSIN

B1: hLZc: lysozyme C isolated from human saliva (protein)
chain: KVFERCELARTLKRLGMDGYRGISLANWMCLAKWESGYNTRATNYNAGDRSTDYGIFQINSRYWCNDGKTPGAVNACHLSCSALLQDNIADAVACAKRVVRDPQGIRAWVAWRNRCQNRDVRQYVQGCGV
In the case of B1, the “Inhibition zone of the factor alone” value [1] is reported as “no visible inhibition zones” and the “Inhibition zone of the factor alone” value [2] is reported as “no visible inhibition zones”.
